Test results taken from article PMC2099194 (The Journal of Cell Biology, 2007).
Read-outs that look alike come from different tables or passages of the source.

Key:
[1] = biological target: FLAG-tagged full-length FLNa (human) (UniProt P21333); assay: rotary-shadowing electron microscopy
[2] = biological target: F-actin (rabbit skeletal muscle actin) (rabbit) (UniProt P68135); assay: co-sedimentation
[3] = biological target: His-ABD-IgFLNa8-15+24 (human) (UniProt P21333); assay: rotary-shadowing electron microscopy
[4] = biological target: His-ABD-IgFLNa16-24 (human) (UniProt P21333); assay: rotary-shadowing electron microscopy
[5] = biological target: F-actin (rabbit skeletal muscle actin) (rabbit) (UniProt P68135); assay: co-sedimentation; remark: listed apart in the source
[6] = biological target: full-length FLNa lacking hinge 2 (human) (UniProt P21333); assay: rotary-shadowing electron microscopy
[7] = biological target: His-IgFLNa8-15+24 (human); assay: rotary-shadowing electron microscopy
His-IgFLNa16-24 (human) = assay: rotary-shadowing electron microscopy
[8] = biological target: His-ABD-IgFLNa1-8+24 (human) (UniProt P21333); assay: rotary-shadowing electron microscopy
[9] = biological target: recombinant human filamin A (FLNa), full length (human) (UniProt P21333); assay: rotary-shadowing electron microscopy
[10] = biological target: full-length FLNa lacking hinge 1 (human) (UniProt P21333); assay: rotary-shadowing electron microscopy
His-IgFLNa1-8+24 (human) = assay: rotary-shadowing electron microscopy
[11] = biological target: FLAG-tagged full-length FLNa (human, UniProt P21333 1-2647); assay: pull-down

FLAG-tagged full-length FLNa, P21333 1-2647
stoichiometry N [1]: 2

ABD-IgFLNa1-2 (domain or fragment)
Kd [2]: 11.8 µM
stoichiometry N (ratio to actin, mol/mol) [2]: 1.3

His-ABD-IgFLNa8-15+24 (from UniProt P21333 1-278) (domain or fragment)
stoichiometry N [3]: 2

ABD-IgFLNa1-23 (domain or fragment)
Kd [2]: 0.31 µM
stoichiometry N (ratio to actin, mol/mol) [2]: 12

His-ABD-IgFLNa16-24 (from UniProt P21333 1-278) (domain or fragment)
stoichiometry N [4]: 2

FLNa ABD (F-actin binding domain alone) (domain or fragment)
percent bound of total input [5]: 11.7%
Kd [2]: 17 µM
percent bound of total input [2]: 8.7%
stoichiometry N (ratio to actin, mol/mol) [2]: 1

full-length FLNa lacking hinge 2 (from UniProt P21333 1-2647) (natural protein)
stoichiometry N [6]: 2

ABD-IgFLNa1-15 (domain or fragment)
Kd [2]: 0.67 µM
stoichiometry N (ratio to actin, mol/mol) [2]: 5.4

His-IgFLNa8-15+24 (domain or fragment)
stoichiometry N [7]: 2

FLAG-ABD-IgFLNa1-8 (domain or fragment)
Kd [2]: 7.1 µM
stoichiometry N (ratio to actin, mol/mol) [2]: 1.8

His-IgFLNa16-24 (domain or fragment)
stoichiometry N (His-IgFLNa16-24 (human)): 2

His-ABD-IgFLNa1-8+24 (from UniProt P21333 1-278) (domain or fragment)
stoichiometry N [8]: 2

recombinant human filamin A (FLNa), full length, P21333 1-2647
stoichiometry N [9]: 2
percent bound of total input [5]: 83.6%
KD of the high avidity site (apparent, two independent site model) [2]: 0.017 µM
KD of the low affinity site (apparent, two independent site model) [2]: 0.22 µM
percent bound of total input [2]: 56.3%

full-length FLNa lacking hinge 1 (from UniProt P21333 1-2647) (natural protein)
stoichiometry N [10]: 2

ABD-IgFLNa1-4 (domain or fragment)
Kd [2]: 7.5 µM
stoichiometry N (ratio to actin, mol/mol) [2]: 1.7

His-IgFLNa1-8+24 (domain or fragment)
stoichiometry N (His-IgFLNa1-8+24 (human)): 2

B1: full-length human recombinant FilGAP (natural protein, UniProt Q8N264 1-748, looked up)
chain: MEENNDSTENPQQGQGRQNAIKCGWLRKQGGFVKTWHTRWFVLKGDQLYYFKDEDETKPLGTIFLPGNKVSEHPCNEENPGKFLFEVVPGGDRDRMTANHESYLLMASTQNDMEDWVKSIRRVIWGPFGGGIFGQKLEDTVRYEKRYGNRLAPMLVEQCVDFIRQRGLKEEGLFRLPGQANLVKELQDAFDCGEKPSFDSNTDVHTVASLLKLYLRELPEPVIPYAKYEDFLSCAKLLSKEEEAGVKELAKQVKSLPVVNYNLLKYICRFLDEVQSYSGVNKMSVQNLATVFGPNILRPKVEDPLTIMEGTVVVQQLMSVMISKHDCLFPKDAELQSKPQDGVSNNNEIQKKATMGQLQNKENNNTKDSPSRQCSWDKSESPQRSSMNNGSPTALSGSKTNSPKNSVHKLDVSRSPPLMVKKNPAFNKGSGIVTNGSFSSSNAEGLEKTQTTPNGSLQARRSSSLKVSGTKMGTHSVQNGTVRMGILNSDTLGNPTNVRNMSWLPNGYVTLRDNKQKEQAGELGQHNRLSTYDNVHQQFSMMNLDDKQSIDSATWSTSSCEISLPENSNSCRSSTTTCPEQDFFGGNFEDPVLDGPPQDDLSHPRDYESKSDHRSVGGRSSRATSSSDNSETFVGNSSSNHSALHSLVSSLKQEMTKQKIEYESRIKSLEQRNLTLETEMMSLHDELDQERKKFTMIEIKMRNAERAKEDAEKRNDMLQKEMEQFFSTFGELTVEPRRTERGNTIWIQ
binding result [11]: binds
